Sequences and labels used below:
T1: lecithin:cholesterol acyltransferase (LCAT), purified from human plasma (human, UniProt P04180 25-440)
T1 sequence (looked up): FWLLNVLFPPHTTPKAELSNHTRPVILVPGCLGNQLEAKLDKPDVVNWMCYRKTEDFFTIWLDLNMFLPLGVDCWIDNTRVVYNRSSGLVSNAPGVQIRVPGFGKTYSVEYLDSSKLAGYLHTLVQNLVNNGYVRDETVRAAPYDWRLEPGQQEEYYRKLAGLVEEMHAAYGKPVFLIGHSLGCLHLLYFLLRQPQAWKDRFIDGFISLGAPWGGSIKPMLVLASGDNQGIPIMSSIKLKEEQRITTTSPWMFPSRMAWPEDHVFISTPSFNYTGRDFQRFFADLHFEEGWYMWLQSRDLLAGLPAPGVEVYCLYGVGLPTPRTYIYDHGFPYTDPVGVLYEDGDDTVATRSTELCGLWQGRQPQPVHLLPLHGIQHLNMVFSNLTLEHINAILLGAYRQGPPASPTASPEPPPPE

Non-standard residues stand in square brackets, D forms with d. Primed or numbered codes have the meaning given here. No end group written: not given here. Orn = NCCC[C@H](N)C(=O)O; Nal″ = naphthylalanine; Aib = CC(C)(N)C(=O)O

The assay deals with T1, lecithin:cholesterol acyltransferase …. The assay is described as follows: cell-based or functional assay.
Regarding PVLDLFRELWNELLEALKQKLK [peptide 15], the “ACTIVITY (%) LCAT” value is 60%.

As to PVLELFENLLERLLDWLQKKLK [peptide 160], the “ACTIVITY (%) LCAT” value was 28%.

As to PVLELFENLLERLLDALQKKLK [peptide 146], the “ACTIVITY (%) LCAT” value stood at 86%.

For PVLELFEQLLEKLLDALQKKLK [peptide 168], the “ACTIVITY (%) LCAT” value came to 17%.

Consider PELDEFREKLNE[Aib]LEALKQKLK [peptide 117], for which the “ACTIVITY (%) LCAT” value is 0%.

In the case of PVLELFLNLWERLLDALQKKLK [peptide 155], the “ACTIVITY (%) LCAT” value turned out to be 38%.

As for PVLELFLNLLERLLDWLQKKLK [peptide 158], the “ACTIVITY (%) LCAT” value was determined as 30%.

On to PVLDLFRWLLNE[Aib]LEALKQKLK [peptide 108], for which the “ACTIVITY (%) LCAT” value came to 0%.

Consider PVLDLFKELLQELLEALKQKLK [peptide 11], for which the “ACTIVITY (%) LCAT” value was 72%.

In the case of PVLDLFENLLERLLDALQKKLK [peptide 159], the “ACTIVITY (%) LCAT” value came out at 28%.

In the case of PVLDEFREKLNE[Aib]SEALKQKLK [peptide 112], the “ACTIVITY (%) LCAT” value is 0%.

PVLELFLNLLERLGDALQKKLK [peptide 172]: the “ACTIVITY (%) LCAT” value amounted to 16%.

For the molecule GVLDLFRELLNEGLEALKQKLK [peptide 13], the “ACTIVITY (%) LCAT” value was 67%.

As for PVLELFENLLEKLLDALQKKLK [peptide 169], the “ACTIVITY (%) LCAT” value came to 17%.

As for PVLELFENLLE[Orn]LLDALQ[Orn][Orn]L[Orn] [peptide 170], the “ACTIVITY (%) LCAT” value turned out to be 17%.

Regarding PVLDLFRELLNELLEA[Nal″]KQKLK [peptide 10], the “ACTIVITY (%) LCAT” value worked out at 79%.

As for PVLELFENLLERGLDALQKKLK [peptide 154], the “ACTIVITY (%) LCAT” value amounted to 39%.

Regarding PVLDEFREKLNEELEWLKQKLK [peptide 122], the “ACTIVITY (%) LCAT” value was determined as 0%.

Take PVLDEFREKLNE[Aib]LEALEQKLK [peptide 118]: the “ACTIVITY (%) LCAT” value was found to be 0%.

Regarding GVLELFENLLERLLDALQKKLK [peptide 145], the “ACTIVITY (%) LCAT” value worked out at 100%.

For PVLELFENGLERLLDALQKKLK [peptide 167], the “ACTIVITY (%) LCAT” value is 18%.

As for PHLDEFREKLNE[Aib]LEALKQKLK [peptide 116], the “ACTIVITY (%) LCAT” value turned out to be 0%.

Regarding PVLELFENLWERLLDALQKKLK [peptide 149], the “ACTIVITY (%) LCAT” value was 63%.

PLLELFENLLERLLDALQKKLK [peptide 150]: the “ACTIVITY (%) LCAT” value is 57%.

For PVLDLFRELLNELLEALXQXLX (Orn (O) at 18, 20, 22) [peptide 14], the “ACTIVITY (%) LCAT” value was found to be 61%.

With PVLELFENLGERLLDALQKKLK [peptide 151], the “ACTIVITY (%) LCAT” value is 55%.

With [dP]VLELFENLLERLLDALQKKLK [peptide 144], the “ACTIVITY (%) LCAT” value stood at 111%.

Turning to PVLDEFREKLWE[Aib]WEALKQKLK [peptide 111], the “ACTIVITY (%) LCAT” value came to 0%.

Turning to PVFELFENLLERLLDALQKKLK [peptide 152], the “ACTIVITY (%) LCAT” value turned out to be 50%.

PVLDEFREKLNE[Aib]MEALKQKLK [peptide 114]: the “ACTIVITY (%) LCAT” value worked out at 0%.

Take PKLDEFREKLNE[Aib]LEALKQKLK [peptide 115]: the “ACTIVITY (%) LCAT” value was determined as 0%.

With PVLELFENLLEKLLDLLQKKLK [peptide 171], the “ACTIVITY (%) LCAT” value turned out to be 16%.

Turning to PVLDLFRELLNELLELLKQKLK [peptide 127], the “ACTIVITY (%) LCAT” value is 47%.

For PVLELFENLLERLFDALQKKLK [peptide 147], the “ACTIVITY (%) LCAT” value stood at 76%.

Consider PLLNELLEALKQKLK [peptide 104], for which the “ACTIVITY (%) LCAT” value worked out at 1%.

In the case of PVLELFENWLERLLDALQKKLK [peptide 162], the “ACTIVITY (%) LCAT” value is 27%.

For the molecule PVLDEFREKLNERLEALKQKLK [peptide 109], the “ACTIVITY (%) LCAT” value worked out at 0%.

In the case of PVLDEFREKLNEELEA[Aib]KQKLK [peptide 119], the “ACTIVITY (%) LCAT” value came out at 0%.

For PVLELFENLLERLWDALQKKLK [peptide 163], the “ACTIVITY (%) LCAT” value stood at 26%.

As to PVLDEFREKLNEELEALWQKLK [peptide 121], the “ACTIVITY (%) LCAT” value turned out to be 0%.

With PVLELFLNLLEKLLDALQKKLK [peptide 166], the “ACTIVITY (%) LCAT” value worked out at 22%.

As to PVLDEFREKLNEPLEALKQKLK [peptide 113], the “ACTIVITY (%) LCAT” value is 0%.

As for PVLDLFRELLNELLE[Nal″]LKQKLK [peptide 1], the “ACTIVITY (%) LCAT” value stood at 120%.

For PVLELFENLLERLLEALQKKLK [peptide 161], the “ACTIVITY (%) LCAT” value was 27%.

For the molecule PVLELFLNLLERLLDALQKKLK [peptide 156], the “ACTIVITY (%) LCAT” value was determined as 35%.

On to PVLELFENLLERLGDALQKKLK [peptide 148], for which the “ACTIVITY (%) LCAT” value was 75%.

For PAADAFREAANEAAEAAKQKAK [peptide 105], the “ACTIVITY (%) LCAT” value amounted to 1%.

Take PVLDEFRELLNEELEALKQKLK [peptide 103]: the “ACTIVITY (%) LCAT” value came to 1%.

Consider AVLELFENLLERLLDALQKKLK [peptide 153], for which the “ACTIVITY (%) LCAT” value is 49%.

Take PVLELFENLLERLLDLLQKKLK [peptide 165]: the “ACTIVITY (%) LCAT” value came to 23%.

As to PVLDLFREKLNEELEALKQKLK [peptide 106], the “ACTIVITY (%) LCAT” value was 0%.

Consider PVLDLFRELLNELLEAGKQKLK [peptide 12], for which the “ACTIVITY (%) LCAT” value is 70%.

As for PVLEFFENLLERLLDALQKKLK [peptide 157], the “ACTIVITY (%) LCAT” value amounted to 30%.

PVLELFENLLERLLDAWQKKLK [peptide 164]: the “ACTIVITY (%) LCAT” value worked out at 24%.

Consider PVLDEFREKLNEELE[Aib]LKQKLK [peptide 120], for which the “ACTIVITY (%) LCAT” value was found to be 0%.

As to KLKQKLAELLENLLERFLDLVP (all D-amino acids (lower case)) [peptide 107], the “ACTIVITY (%) LCAT” value was 0%.

Turning to PVLDEFREKLNE[Aib][Aib]EALKQKLK [peptide 110], the “ACTIVITY (%) LCAT” value was determined as 0%.
